Laboratory results reported in paper PMC12276331, “Nanomechanical binding mechanism of ligands drives agonistic activity” (Nature Communications, 2025).

Key:
[1] = target: T1, transmembrane hCD40 receptor expressed on the surface of CHO cells (CHO-CD40-GFP) (human, UniProt P25942 21-277); experiment: single-molecule force spectroscopy (AFM, SMFS); hCD40L coupled by its His6-tag to the PEG-tris-NTA AFM tip; living CHO cells expressing hCD40; room temperature; HEPES buffer (137 mM NaCl, 2.7 mM KCl, 10 mM HEPES, pH 7.4) with 50 µM NiCl2; contact time and pulling speed varied; Bell-Evans and Markov binding models; conditions: one partner purified
T1 construct: CD40 (TNFR superfamily), human; expressed from a CD40 green fluorescent protein fusion construct (Origene #RG201977) on CHO cells; source: CHO cells, transfected (Lipofectamine 2000), G418-selected and sorted by GFP; on living cells

[2] = target: T1, transmembrane hCD40 receptor expressed …; experiment: as above; conditions: one partner purified; remark: listed apart in the source

T1 sequence (P25942 21-277): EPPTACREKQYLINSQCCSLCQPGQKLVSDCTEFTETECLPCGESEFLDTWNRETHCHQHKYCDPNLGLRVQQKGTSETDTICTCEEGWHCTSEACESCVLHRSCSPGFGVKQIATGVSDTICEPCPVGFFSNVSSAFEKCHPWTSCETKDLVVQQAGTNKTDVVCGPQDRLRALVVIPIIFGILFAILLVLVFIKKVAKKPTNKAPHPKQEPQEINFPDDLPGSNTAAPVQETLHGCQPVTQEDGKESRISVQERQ

- Kd [1]: 3.2 µM
- Kd [2]: 3.3 µM
- koff [2]: 0.35 s⁻¹
- kon [2]: 160000 M⁻¹ s⁻¹
B1: Active trimeric human CD40 ligand (hCD40L/hCD154; residues 116G-261L) with N-terminal His6-tag (CDL-H5248) (ligand, UniProt P29965 116-261, looked up)
chain: GDQNPQIAAHVISEASSKTTSVLQWAEKGYYTMSNNLVTLENGKQLTVKRQGLYYIYAQVTFCSNREASSQAPFIASLCLKSPGRFERILLRAANTHSSAKPCGQQSIHLGGVFELQPGASVFVNVTDPSQVSHGTGFTSFGLLKL
notes: CD40 ligand (CD154), human, residues 116G-261L; Used for SMFS (coupled to the tip by its His6-tag through tris-NTA/Ni) and for HS-AFM; also called trimeric hCD40L; source: bought: AcroBiosystems, USA (CDL-H5248); not shown: His6, N-terminal, kept
